Molecular target: wild type tau (human, UniProt P10636)
Test: ELISA

Sequence of wild type tau (P10636 2-758): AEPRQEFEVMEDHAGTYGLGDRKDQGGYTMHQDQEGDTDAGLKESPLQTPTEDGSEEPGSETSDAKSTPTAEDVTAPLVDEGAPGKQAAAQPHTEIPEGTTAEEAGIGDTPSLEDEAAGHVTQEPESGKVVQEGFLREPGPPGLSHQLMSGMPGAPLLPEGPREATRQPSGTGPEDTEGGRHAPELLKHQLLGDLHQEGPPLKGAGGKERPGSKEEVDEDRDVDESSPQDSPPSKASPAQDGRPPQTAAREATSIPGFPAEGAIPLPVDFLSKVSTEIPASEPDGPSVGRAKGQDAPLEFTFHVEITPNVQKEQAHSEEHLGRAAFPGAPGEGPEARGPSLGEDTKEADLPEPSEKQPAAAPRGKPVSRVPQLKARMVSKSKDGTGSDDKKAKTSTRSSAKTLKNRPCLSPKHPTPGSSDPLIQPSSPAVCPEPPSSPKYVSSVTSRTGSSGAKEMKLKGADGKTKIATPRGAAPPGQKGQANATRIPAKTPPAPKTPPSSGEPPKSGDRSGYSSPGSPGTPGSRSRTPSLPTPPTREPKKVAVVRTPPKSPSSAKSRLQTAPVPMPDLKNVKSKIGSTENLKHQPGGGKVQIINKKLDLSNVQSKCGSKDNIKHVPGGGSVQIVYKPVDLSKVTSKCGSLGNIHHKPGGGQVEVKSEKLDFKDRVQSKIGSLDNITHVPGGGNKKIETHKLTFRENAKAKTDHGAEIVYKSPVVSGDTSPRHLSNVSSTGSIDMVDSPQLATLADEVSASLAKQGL

Row | binding result | Binder
1 | no binding | V0004 (antibody, V domains shown, non-phosphorylated) VH: QVQLQQPGAELVKPGASVKLSCKASDYTFTNYWMHWVKQRPGRGLEWIGRIDPNSGGTRYNEKFKNKATLTVDKPSSTAYMHLSSLTSEDSAVYYCAGDFDVWGTGTTVTVSS VL: DIQMTQSPASLSASVGETVTITCRASGNIHNYLAWYQQRQGKSPQLLVYNAKTLPDGVPSRFSGSGSGTQYSLKINSLQPEDFGSYCCQHFWSTPLTFGAGTKLELK
2 | no binding | V0024 (antibody, V domains shown, non-phosphorylated) VH: QVQLQQPGTELVKPGASVKLSCKASGYTFTRFWMHWVKQRPGQGLEWIGNINPNNGGTDNNERFKSKATLTVDRSSSTAYMQLSSLTSEDSAVYYCARGTGTGAMDYWGQGTSVTVSS VL: DVVMTQTPLSLPVSLGDQASISCRSSQSLVHSNGNTHLYWYLQKPGQSPKLLIYRVSSRFSGVPDRFSGSGSGTDFTLKISRVEAEDLGVYFCFQGTHVPRTFGGGTKLEIK
3 | no binding | V0009 (antibody, V domains shown, non-phosphorylated) VH: EVQLVESGGALVQPGGSLSLSCAASGFTFTDYYMSWVRQPPGKALEWLALIRNKAKGFTTEYSASVKGRFTISRDNSQSILLFQMNDLRADDSATYYCVRDINYWGQGTTLTVSS VL: not shown
